Data reported in the nanobody polyreactivity screen of Harvey et al. (2022).

Test: yeast display, Sf9 membrane polyspecificity reagent, FACS + sequencing; frameworks hold sequencing errors
In short: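 After 36–48 hours of galactose induction, yeast (Saccharomyces cerevisiae BJ5465) displaying a synthetic nanobody library were stained at 4 °C for 1 hour with 10% biotinylated, detergent-solubilized Sf9 membrane reagent. Streptavidin microbeads enriched the stained cells before FACS sorting into low and high (top ~1%) gates on anti-HA and streptavidin fluorescence. Each clone's polyreactivity label reflects its gate of origin.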
For “QVQLVESGGGLVQAGGSLRLSCAASGRIFLINAMGWYRQARGKEWELVAAIRTGGNTYYADSVKGRFTISRDNAKTTVYLQMNSLKPEDTAVYYCAAARIYPYYRWSGAHRSDVDYWGQGTQVTVSS”, the “polyreactivity (PSR sort gate)” value was “low polyreactivity”. In the case of “QVQLVESGGGLVQAGGSLRLSCAASGRIFLIYAMGWYRQAPGKDRELVAAISGRGGGTTYYADSVKGRFTISRDNAKITVYLQMNSLKPEATAVYYCAARNGGHKYYYWGQGTQVTVSS”, the “polyreactivity (PSR sort gate)” value is reported as “high polyreactivity”. With “QVQLVESGGGLVQAGGSLRLSCAASGRIFLPNAMGWYRQAPGKERELVATITRGGGSTYYADSVKGRFTISRDNAKNTVYLQMNSLKPEDTAVYYCAKGYLLYQGHLPYWHRGGYWGQGTQVTVSS” the “polyreactivity (PSR sort gate)” value was “high polyreactivity”. With “QVQLVESGGGLVQAGGSLRLSCAASGRIFLRNAMGWFRQAPGKERELVAAIRGSGGSTYYADSVKRRFTISRDHAKTTVYLQTNSLKPEDTPVYYCAVASYYRYSHTYGYWGQGTQVTVSS” the “polyreactivity (PSR sort gate)” value was “high polyreactivity”. In the case of “QVQLVESGGGLVQAGGSLRLSCAASGRIFLRNDMGWYRQAPGKVRELVAGISSDGSTYYADSVKGRFTISRDNAKNTVYLQMTSLKPEDTAVYYCNAEDTPGAGDGNWGQGTQVTVSS”, the “polyreactivity (PSR sort gate)” value is reported as “low polyreactivity”. With “QVQLVESGGGLVQAGGSLRLSCAASGRIFLSNAMGWYRQAPGKERELVAAISLSGGRTYYADSVKGRFTISRDNAKNTVYLQMNSLKPEDTAVYYCAAEFYPIRYYGRYDYWGQGTQVTVSS” the “polyreactivity (PSR sort gate)” value was “low polyreactivity”. For “QVQLVESGGGLVQAGGSLRLSCAASGRIFLSYAIGWYRQAPGKERELVAAITSSGGSTYYADSVKGRFTISRDNAKNTVYFQMNSLKPEDTAVYYCAADYGDPRVNEYDYWGQGTQVTVSS”, the “polyreactivity (PSR sort gate)” value was “low polyreactivity”. With “QVQLVESGGGLVQAGGSLRLSCAASGRIFLSYAMGWYRQAPGKERELVAAISQSGSSKYYADSVKGRFTISRDNAKNTVYLQMNSLKPEDTAVYYCAARTGRKYYYWGQGTQVTVST” the “polyreactivity (PSR sort gate)” value was “high polyreactivity”. With “QVQLVESGGGLVQAGGSLRLSCAASGRIFLSYAMGWYRQAPGNEREFVAAITSSGGSTSYADSVKGRFTISRDNAKNTVYLQMNSLKPEDTAVYYCNDRAYIFGQMKYDYWGQGTQVTVSS” the “polyreactivity (PSR sort gate)” value was “low polyreactivity”. For “QVQLVESGGGLVQAGGSLRLSCAASGRIFLTKAMGWYRQAPGKERELVADISRGGSTYADSVKGRFTISRDNAKNTVYLQMNSLKPEDTAVYYCAADEYSPGDSRTRYDYWGQGTQVTVSS”, the “polyreactivity (PSR sort gate)” value was “low polyreactivity”. With “QVQLVESGGGLVQAGGSLRLSCAASGRIFLTNAMGWYRQAHGKERELVADISRGGSTYADSVKGRFTISRDNAKNTVYLQMNSLKPEDTAVYYCAADEYSPGDSRTRYDYWGQGTQVTVSS” the “polyreactivity (PSR sort gate)” value was “low polyreactivity”. In the case of “QVQLVESGGGLVQAGGSLRLSCAASGRIFLVYAMGGSRQAPGKDRELVAAISWSTGSTYYADSVKGRFTISRDNAKNTVYLQMNSLKPEDTAVYYCAAEPELDEYEHDYWGQGTQVTVSS”, the “polyreactivity (PSR sort gate)” value is reported as “low polyreactivity”. In the case of “QVQLVESGGGLVQAGGSLRLSCAASGRIFLVYAMGWSRPAPGKERELVAAISYSGGRTYYADSVKGRFTISRDNAKNTVYLQMNSLKPEDTAVYYCAASPRYSYLAQGLDYDYWGQGTQVTVSS”, the “polyreactivity (PSR sort gate)” value is reported as “high polyreactivity”. With “QVQLVESGGGLVQAGGSLRLSCAASGRIFLWYAMGWSRQAPGKERELVAGISSGASTYYADSVKGRFTISRDNAKNTVYLQMNSLKPEDTAVYYCAAPYDRLTGWSRYDYWGQGTQVTVSS” the “polyreactivity (PSR sort gate)” value was “high polyreactivity”. For “QVQLVESGGGLVQAGGSLRLSCAASGRIFLWYAMGWYRQAPGKERELVAAISSGGSTKYADSVKGRFTISRDNAKNTVYLQMNSLKPEDTAVYYCAATRKYSYVTYYYWGQGTQVTVSS”, the “polyreactivity (PSR sort gate)” value was “high polyreactivity”. With “QVQLVESGGGLVQAGGSLRLSCAASGRIFLWYAMGWYRQAPGKERELVASITRSGVTTYYADSVKGRFTISRDNAKNTVYLQMNSLKPEDTAVYYCAAELYGWSGDTNDYWGQGTHVTVSS” the “polyreactivity (PSR sort gate)” value was “low polyreactivity”. With “QVQLVESGGGLVQAGGSLRLSCAASGRIFLYNAMAWYRQAPGKERELVASISSGDTTNYADSVKGRFTISRDNAKNTVYLQMNSLKPEDTAVYYCNAEYGTPYSWFDYWGQGTQVTVSS” the “polyreactivity (PSR sort gate)” value was “low polyreactivity”. In the case of “QVQLVESGGGLVQAGGSLRLSCAASGRIFLYNAMGWYRQAPGKEREFVATISYSGGRTNYADSVKGRFTISRDNAKNTVYLQMNSLKPEDTAVYYCAARWPWFYAHAYDYWGQGTQVTVSS”, the “polyreactivity (PSR sort gate)” value is reported as “high polyreactivity”. In the case of “QVQLVESGGGLVQAGGSLRLSCAASGRIFLYNAMGWYRQAPGKERELVASISSGDTTNYADSVKGRFTISRDNAKKTVYLQMNSLKPEDTAVYYCAADGQYSVIVKYDSWGQGTQVTVSS”, the “polyreactivity (PSR sort gate)” value is reported as “low polyreactivity”. In the case of “QVQLVESGGGLVQAGGSLRLSCAASGRIFLYYTMGWYRQAPGKERELVADITWRGGSTYYADSVKGRFTISRDNAKNTVYLQMNSLKPVDTAVYYCNAVSVSSNRSDYWGQGTQVTVSS”, the “polyreactivity (PSR sort gate)” value is reported as “low polyreactivity”. In the case of “QVQLVESGGGLVQAGGSLRLSCAASGRIFLYYTMGWYRQAPGKERELVATIRSGDSTNYADSVKGRFTISRDNAKNTVYLQMNSLKPEDTAVYYCAADWDIFQQGANGAPYDYWGQGTQVTVSS”, the “polyreactivity (PSR sort gate)” value is reported as “low polyreactivity”. With “QVQLVESGGGLVQAGGSLRLSCAASGRIFNANAMGWYRHAPGKERELVAAISSSGGSTYYADSVKGRFTISRDNAKNTVYLQMNSLNPEDTAVYYCNADWGWRYSSDFDYWGQGTQVTVSS” the “polyreactivity (PSR sort gate)” value was “low polyreactivity”. For “QVQLVESGGGLVQAGGSLRLSCAASGRIFNAYAMGWYRQAPGKERELVAAISRSGGRTYYADSVKGRFTISRDNAKNNVYLQMNILKPEDTAVYYCAKDFFEHSPVSHTYSSSKYDYWGQGTQVTVSS”, the “polyreactivity (PSR sort gate)” value was “low polyreactivity”. In the case of “QVQLVESGGGLVQAGGSLRLSCAASGRIFNEYGMGWYRQAPGKERELVAAITDGTTTYYADSVKGRFTISRDNAKNTVYLQMNSLKPEDTAVYYCAASSTWYGYYIFVFRAYDYWGQGTQVTVSS”, the “polyreactivity (PSR sort gate)” value is reported as “low polyreactivity”. For “QVQLVESGGGLVQAGGSLRLSCAASGRIFNFYAMGWYRQAPGKERELVASITGSTGSTYYADSVKGRFTISRDNAKNTVYLQMNSLKPEDTAVYYCNTYRVTRDYYWGQGTQVTVSS”, the “polyreactivity (PSR sort gate)” value was “low polyreactivity”. With “QVQLVESGGGLVQAGGSLRLSCAASGRIFNFYAMGWYRQAPGKERELVASITSGGRTSYADSVKGRFTISRDNAKNTVYLQMNSLKPEDTAVYYCAAKSPLKTYYFTSFRYYYWGQGTQVTVSS” the “polyreactivity (PSR sort gate)” value was “high polyreactivity”. In the case of “QVQLVESGGGLVQAGGSLRLSCAASGRIFNGYAMGWYRQAPGKERELVASITSAGSTYFADSVTGRVTISRDNAKNTVYVQMNRLKPEDTAVYYCAADSYSVYYYTYDSWGQGTQVTVSS”, the “polyreactivity (PSR sort gate)” value is reported as “low polyreactivity”. With “QVQLVESGGGLVQAGGSLRLSCAASGRIFNGYPIGWYIQAPGKEREFVATISRSGGCTYYADSVKGRFTISRDNAKNTVYLQMISLKPEDTAVYYCAKTYPAKWEYDYWGQGTQVTVSS” the “polyreactivity (PSR sort gate)” value was “low polyreactivity”. In the case of “QVQLVESGGGLVQAGGSLRLSCAASGRIFNIYAMGWYRQAPGKERELVAAIRWNGGSTYYADSVKGRFTISRDNAKNTVYLQMNSLKPEDTAVYYCAARHPLYRVQHEYWGQGTQVTVSS”, the “polyreactivity (PSR sort gate)” value is reported as “low polyreactivity”. In the case of “QVQLVESGGGLVQAGGSLRLSCAASGRIFNKNAMGWYRQPPGKEREFVAAISRSGGRTYYADSVKGRFTISRDNAKNTVYLQMNSLKPEDPAVYFCAAEYRGVPRVVVDYDYWGQGTQVTVSS”, the “polyreactivity (PSR sort gate)” value is reported as “high polyreactivity”. For “QVQLVESGGGLVQAGGSLRLSCAASGRIFNLYAMGWYRQAPGKERELVAAIRGRGTSTYYADSVKGRFTISRDNAKNTVYLQMNSLKPEDTAVYYCATTSRELGELRIFDYWGQGTQVTVSS”, the “polyreactivity (PSR sort gate)” value was “low polyreactivity”.
